Reference: patent publication US20190382481A1 (Janssen / Centocor, published 2019)

Experiments:
[1] = target: T1, Cyno CD33 full length (over-expressed on transduced HEK293F / HEK 293T cells) (cyno); assay: flow cytometry, HEK293F cells expressing cyno CD33
T1 construct: also called cyCD33; cyno CD33 expressing cells
Protocol: (§1) The purified antibodies were assessed for binding to stably transfected HEK293F cells expressing human CD33 or cyno CD33 (generation described above) along with the parental HEK293F as negative control. Cells were harvested from tissue culture flasks using non-enzymatic dissociation buffer (Thermo Scientific). The flasks were rinsed twice with PBS and dissociation buffer was added to the flask, and the flask was incubated for 10 minutes at 37° C. until the cells became non-adherent. The cells were centrifuged at 300 g for 5 minutes and resuspended at 1.0×10⁶ cells/ml in staining buffer (Becton Dickinson; Franklin Lakes, N.J.). 50,000 cells/well of each cell type was plated in 50 μl of staining buffer in round bottom plates (Becton Dickinson). 50 μl of 2× concentration test mAb or isotype control was added at 3 dilutions and zero (120 nM, 12 nM, and 1.2 nM and 0 nM), and the resultant solution was incubated 30 min at 4° C. […] 30 ul running buffer containing Sytox Green live/dead dye (ThermoFisher) was added to all wells with cells and the plates were read on an iQue IntelliCyt flow cytometer. […] Antibody binding was assessed by the mean fluorescence intensity in the AF647 channel. […]

[2] = target: T2, Human CD33 full length (over-expressed on transduced HEK293F cells) (human, UniProt P20138 18-364); assay: flow cytometry, HEK293F cells expressing human CD33
T2 construct: also called huCD33; human CD33 expressing cells
T2 sequence (P20138 18-364 limits assumed): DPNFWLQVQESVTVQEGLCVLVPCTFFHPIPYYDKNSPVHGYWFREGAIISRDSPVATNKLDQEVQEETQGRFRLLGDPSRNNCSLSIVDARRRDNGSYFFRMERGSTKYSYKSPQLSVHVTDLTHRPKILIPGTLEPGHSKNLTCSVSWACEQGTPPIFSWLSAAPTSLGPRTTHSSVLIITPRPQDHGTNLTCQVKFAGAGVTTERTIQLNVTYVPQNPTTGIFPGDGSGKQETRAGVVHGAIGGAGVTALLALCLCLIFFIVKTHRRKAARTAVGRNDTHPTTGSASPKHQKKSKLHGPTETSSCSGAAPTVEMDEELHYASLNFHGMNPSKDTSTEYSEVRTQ
Protocol: as §1

T1 sequence (chain, as listed by the source limits assumed): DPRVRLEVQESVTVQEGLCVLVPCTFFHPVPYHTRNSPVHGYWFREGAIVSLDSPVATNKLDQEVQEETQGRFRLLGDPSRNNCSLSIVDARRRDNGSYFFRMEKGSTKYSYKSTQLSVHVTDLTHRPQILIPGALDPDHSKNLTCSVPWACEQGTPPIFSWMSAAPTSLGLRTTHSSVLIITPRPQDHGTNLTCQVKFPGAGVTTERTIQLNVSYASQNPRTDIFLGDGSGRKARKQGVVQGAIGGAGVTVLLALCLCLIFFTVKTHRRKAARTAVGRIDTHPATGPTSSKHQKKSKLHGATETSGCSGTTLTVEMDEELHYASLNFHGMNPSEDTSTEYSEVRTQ

B1: C33B909 (antibody, V domains shown)
VH: EVQLVESGGGLVQPGRSLRLSCVASGFTFDDYAIHWVRQAPGKGLEWVSGLSWNGGNIGYADSVKGRFTISRDNAKNSLYLQMNSLKTEDTAFYYCTKDTPYGDYFDYWGQGTLVTVSS
VL: DIQMTQSPSSVWASVGDRVTITCRASQGISSWLAWYQQQPGKAPNLLIYRSSSLQSGVPSRFSGSGSGTDFTLTISSLQPEDFATYYCQQDNSFPYTFGQGTKLEIKR
notes: OMNIMouse campaign; also called C33H249/C33L115
[1]
  binding result: no binding
[2]
  binding result: no binding
